Test results published in patent US20260234262A1.

Molecular target: Target 2 (canine examples 1 to 4) (canine)
Experiment: SPR, Biacore T200; antibody captured on anti-canine coupled CM5 chip, antigen in solution, 1:1 fit

Kd: 0.213 nM
koff: 6.24e-05 s⁻¹
kon: 293000 M⁻¹ s⁻¹
B1: 02F09R3-Fc (Fc fusion)
chain: QVQLVESGGGLVQAGGSLRLSCVASGSTFSNLVMAWYRQAPGKQREWVARISLAGNTIYADSVKGRFTISRDNAKNTVYLQMNSLKIEDTAVYYCSRGGVDWGQGTQVTVSSGPGGQVPKRENGRVPRPPDCPKCPAPEAAGGPSVFIFPPKPKDTLLIARTPEVTCVVVDLDPEDPEVQISWFVDGKQMQTAKTQPREEQFNGTYRVVSVLPIGHQDWLKGKQFTCKVNNKALPSPIERTISKARGQAHQPSVYVLPPSREELSKNTVSLTCLIKDFFPPDIDVEWQSNGQQEPESKYRTTPPQLDEDGSYFLYSKLSVDKSRWQRGDTFICYVMHEALHNHYTQESLSHSP
modifications: N-terminal pyroglutamate (PyroQ) observed by intact mass
